Laboratory results: publication PMC11250742, “Preclinical evaluation of CXCR4 peptides for targeted radionuclide therapy in glioblastoma” (EJNMMI Radiopharmacy and Chemistry, 2024)
Like-named read-outs stand apart in the source and are kept apart here. Where a SMILES comes first, the peptide text is derived from it. Bridges are numbered along the chain shown (N, C = ends). [ ]: non-standard residue; d: D form. The star is where a group is joined. DOTA = O=C(O)CN1CCN(CC(=O)O)CCN(CC(=O)*)CCN(CC(=O)O)CC1; 2Nal = N[C@@H](Cc1ccc2ccccc2c1)C(=O)O; Cit = NC(=O)NCCC[C@H](N)C(=O)O

Assay: Ex vivo biodistribution in U87-CXCR4 + tumour-bearing mice
Parameters: species or system BALB/c nude mice
Details: mouse; for tissue to tissue ratio at 24 h / tissue uptake dose at 1 h / tissue uptake dose at 4 h / tissue uptake dose at 24 h / tissue uptake dose at 168 h / SUV at 1 h / SUV at 4 h / SUV at 24 h / SUV at 168 h: female, BALB/c nude, iv, 1.5 MBq, total radioactivity; for tissue uptake dose at 1 h / tissue uptake dose at 4 h / tissue uptake dose at 24 h / tissue uptake dose at 168 h: %IA
Experimental: For the generation of the subcutaneous GBM xenograft model, BALB/c nude mice (between 8 and 12 weeks old) were anesthetised with 2.5% isoflurane in O2 at a flow rate of 0.2 L/min and subcutaneously injected on the right shoulder with 3 × 10^6 U87-CXCR4 + cells resuspended in a 1:1 mixture of PBS and Cultrex BME (R&D Systems, Bio-Techne, Minnesota, US). Tumours were left to grow for ten days before the start of the experiment. Tumour volumes were calculated as length × width × height. Three days before the experiment, the mean tumour volumes of all mice were 255 ± 119 mm^3.
The pharmacokinetic profile of [^177Lu]Lu-POL3026 was evaluated in female BALB/c nude mice with subcutaneous xenografts of U87-CXCR4 + tumours.
All animals were anesthetised with 2.5% isoflurane in O2 at a flow rate of 1 L/min and intravenously (IV) injected with 1.5 MBq of [^177Lu]Lu-POL3026 via a tail vein (radiolabelled with a Am of 53.1 ± 0.55 MBq/nmol). The mice were sacrificed by an overdose of pentobarbital (200 µL of 60 mg/mL) at 1-, 4-, 24- and 168 h post-injection (p.i.) (n = 3–4 per time point), followed by cardiac puncture. Organs of interest were collected in tarred tubes and weighed. The activity in the different organs was measured in the automated gamma counter described above. For the calculation of the total activity in the blood, bone, and muscle, the masses were assumed to be 7, 12 and 40% of the total body mass, respectively. Data is shown as standardised uptake value (SUV), calculated using the following equation:
SUV = [Activity in organ (cpm) / Organ weight (g)] / [(Injected activity (cpm) / Total body weight (g)].

N=C(N)NCCC[C@@H]1NC(=O)[C@@H]2CSSC[C@H](NC(=O)[C@H](Cc3ccc4ccccc4c3)NC(=O)[C@H](CCCNC(=N)N)NC(=O)[C@H](CCCNC(=N)N)NC(=O)[C@H]3CCCN3C(=O)CNC1=O)C(=O)N[C@@H](Cc1ccc(O)cc1)C(=O)N[C@@H](CCC(N)=O)C(=O)N[C@@H](CCCCNC(=O)CN1CCN(CC(=O)O)CCN(CC(=O)O)CCN(CC(=O)O)CC1)C(=O)N1CCC[C@@H]1C(=O)N1CCC[C@H]1C(=O)N[C@@H](Cc1ccc(O)cc1)C(=O)N[C@@H](CCCNC(=N)N)C(=O)N[C@@H](CCCNC(N)=O)C(=O)N2 [[^177Lu]Lu-DOTA-POL3026, metal not drawn] (cyclo(RR[2Nal]CYQK(DOTA)[dP]PYR[Cit]CRG[dP]); disulfide 4-13)
tissue to tissue ratio at 24 h (24 h p.i., read-out: tumour-to-kidney ratio): 0.7
tissue uptake dose at 1 h (Blood): 15.2 %ID
tissue uptake dose at 4 h (Blood): 3.73 %ID
tissue uptake dose at 24 h (Blood): 0.14 %ID
tissue uptake dose at 168 h (Blood): 0.04 %ID
tissue uptake dose at 1 h (Blood on tissue paper): 3.79 %ID
tissue uptake dose at 4 h (Blood on tissue paper): 1.56 %ID
tissue uptake dose at 24 h (Blood on tissue paper): 0.51 %ID
tissue uptake dose at 168 h (Blood on tissue paper): 0.2 %ID
tissue uptake dose at 1 h (Bone): 8.81 %ID
tissue uptake dose at 4 h (Bone): 14.4 %ID
tissue uptake dose at 24 h (Bone): 7.05 %ID
tissue uptake dose at 168 h (Bone): 2.14 %ID
tissue uptake dose at 1 h (Brain): 0.09 %ID
tissue uptake dose at 4 h (Brain): 0.03 %ID
tissue uptake dose at 24 h (Brain): 0.01 %ID
tissue uptake dose at 1 h (Carcass): 28.5 %ID
tissue uptake dose at 4 h (Carcass): 18.3 %ID
tissue uptake dose at 24 h (Carcass): 12.8 %ID
tissue uptake dose at 168 h (Carcass): 3.02 %ID
tissue uptake dose at 1 h (Heart): 0.71 %ID
tissue uptake dose at 4 h (Heart): 0.22 %ID
tissue uptake dose at 24 h (Heart): 0.09 %ID
tissue uptake dose at 168 h (Heart): 0.01 %ID
tissue uptake dose at 1 h (Intestines): 5.63 %ID
tissue uptake dose at 4 h (Intestines): 3.76 %ID
tissue uptake dose at 24 h (Intestines): 2.14 %ID
tissue uptake dose at 168 h (Intestines): 0.59 %ID
tissue uptake dose at 1 h (Kidneys): 4.03 %ID
tissue uptake dose at 4 h (Kidneys): 4.99 %ID
tissue uptake dose at 24 h (Kidneys): 3.65 %ID
tissue uptake dose at 168 h (Kidneys): 0.61 %ID
tissue uptake dose at 1 h (Liver): 31.6 %ID
tissue uptake dose at 4 h (Liver): 39.8 %ID
tissue uptake dose at 24 h (Liver): 39.2 %ID
tissue uptake dose at 168 h (Liver): 14.2 %ID
tissue uptake dose at 1 h (Lungs): 2.72 %ID
tissue uptake dose at 4 h (Lungs): 1.87 %ID
tissue uptake dose at 24 h (Lungs): 0.59 %ID
tissue uptake dose at 168 h (Lungs): 0.06 %ID
tissue uptake dose at 1 h (Muscle): 9.87 %ID
tissue uptake dose at 4 h (Muscle): 4.89 %ID
tissue uptake dose at 24 h (Muscle): 3.78 %ID
tissue uptake dose at 168 h (Muscle): 0.57 %ID
tissue uptake dose at 1 h (Pancreas): 0.3 %ID
tissue uptake dose at 4 h (Pancreas): 0.16 %ID
tissue uptake dose at 24 h (Pancreas): 0.1 %ID
tissue uptake dose at 168 h (Pancreas): 0.02 %ID
tissue uptake dose at 1 h (Spleen): 4.01 %ID
tissue uptake dose at 4 h (Spleen): 2.02 %ID
tissue uptake dose at 24 h (Spleen): 1.61 %ID
tissue uptake dose at 168 h (Spleen): 0.72 %ID
tissue uptake dose at 1 h (Stomach): 0.35 %ID
tissue uptake dose at 4 h (Stomach): 0.31 %ID
tissue uptake dose at 24 h (Stomach): 0.17 %ID
tissue uptake dose at 168 h (Stomach): 0.03 %ID
tissue uptake dose at 1 h (Tail): 2.05 %ID
tissue uptake dose at 4 h (Tail): 1.75 %ID
tissue uptake dose at 24 h (Tail): 1.7 %ID
tissue uptake dose at 168 h (Tail): 0.53 %ID
tissue uptake dose at 1 h (Tumour): 1.54 %ID
tissue uptake dose at 4 h (Tumour): 1.01 %ID
tissue uptake dose at 24 h (Tumour): 1.46 %ID
tissue uptake dose at 168 h (Tumour): 0.29 %ID
SUV at 1 h (Blood): 2.17 SUV
SUV at 4 h (Blood): 0.53 SUV
SUV at 24 h (Blood): 0.02 SUV
SUV at 1 h (Bone): 0.73 SUV
SUV at 4 h (Bone): 1.2 SUV
SUV at 24 h (Bone): 0.59 SUV
SUV at 168 h (Bone): 0.18 SUV
SUV at 1 h (Brain): 0.05 SUV
SUV at 4 h (Brain): 0.02 SUV
SUV at 24 h (Brain): 0.01 SUV
SUV at 1 h (Heart): 1.33 SUV
SUV at 4 h (Heart): 0.46 SUV
SUV at 24 h (Heart): 0.17 SUV
SUV at 168 h (Heart): 0.02 SUV
SUV at 1 h (Kidneys): 2.57 SUV
SUV at 4 h (Kidneys): 3.34 SUV
SUV at 24 h (Kidneys): 2.41 SUV
SUV at 168 h (Kidneys): 0.38 SUV
SUV at 1 h (Liver): 5.27 SUV
SUV at 4 h (Liver): 7.32 SUV
SUV at 24 h (Liver): 6.46 SUV
SUV at 168 h (Liver): 2.3 SUV
SUV at 1 h (Lungs): 4.74 SUV
SUV at 4 h (Lungs): 3.24 SUV
SUV at 24 h (Lungs): 1.02 SUV
SUV at 168 h (Lungs): 0.08 SUV
SUV at 1 h (Muscle): 0.25 SUV
SUV at 4 h (Muscle): 0.12 SUV
SUV at 24 h (Muscle): 0.09 SUV
SUV at 168 h (Muscle): 0.01 SUV
SUV at 1 h (Pancreas): 0.3 SUV
SUV at 4 h (Pancreas): 0.19 SUV
SUV at 24 h (Pancreas): 0.13 SUV
SUV at 168 h (Pancreas): 0.02 SUV
SUV at 1 h (Spleen): 8.67 SUV
SUV at 4 h (Spleen): 6.77 SUV
SUV at 24 h (Spleen): 4.83 SUV
SUV at 168 h (Spleen): 1.84 SUV
SUV at 1 h (Tumour): 1.39 SUV
SUV at 4 h (Tumour): 1.74 SUV
SUV at 24 h (Tumour): 1.79 SUV
SUV at 168 h (Tumour): 0.32 SUV
tissue to tissue ratio at 24 h (tumour-to-blood ratio): 89
tissue to tissue ratio at 24 h (tumour-to-liver ratio): 0.3
tissue to tissue ratio at 24 h (tumour-to-muscle ratio): 19
%IA, Brain: 0.00 %IA
SUV, Blood: 0.00
SUV, Brain: 0.00
SUV, Tumour: 1.9
